Assay results from article PMC3735830 (Nature structural & molecular biology, 2013).

How the values were obtained:
Assay in all cases: co-IP
Mcm3 = Mcm3 (S. cerevisiae, UniProt P24279 1-971)
Mcm4 = target: T1, Mcm4 (S. cerevisiae, UniProt P30665 1-933)
T1 sequence: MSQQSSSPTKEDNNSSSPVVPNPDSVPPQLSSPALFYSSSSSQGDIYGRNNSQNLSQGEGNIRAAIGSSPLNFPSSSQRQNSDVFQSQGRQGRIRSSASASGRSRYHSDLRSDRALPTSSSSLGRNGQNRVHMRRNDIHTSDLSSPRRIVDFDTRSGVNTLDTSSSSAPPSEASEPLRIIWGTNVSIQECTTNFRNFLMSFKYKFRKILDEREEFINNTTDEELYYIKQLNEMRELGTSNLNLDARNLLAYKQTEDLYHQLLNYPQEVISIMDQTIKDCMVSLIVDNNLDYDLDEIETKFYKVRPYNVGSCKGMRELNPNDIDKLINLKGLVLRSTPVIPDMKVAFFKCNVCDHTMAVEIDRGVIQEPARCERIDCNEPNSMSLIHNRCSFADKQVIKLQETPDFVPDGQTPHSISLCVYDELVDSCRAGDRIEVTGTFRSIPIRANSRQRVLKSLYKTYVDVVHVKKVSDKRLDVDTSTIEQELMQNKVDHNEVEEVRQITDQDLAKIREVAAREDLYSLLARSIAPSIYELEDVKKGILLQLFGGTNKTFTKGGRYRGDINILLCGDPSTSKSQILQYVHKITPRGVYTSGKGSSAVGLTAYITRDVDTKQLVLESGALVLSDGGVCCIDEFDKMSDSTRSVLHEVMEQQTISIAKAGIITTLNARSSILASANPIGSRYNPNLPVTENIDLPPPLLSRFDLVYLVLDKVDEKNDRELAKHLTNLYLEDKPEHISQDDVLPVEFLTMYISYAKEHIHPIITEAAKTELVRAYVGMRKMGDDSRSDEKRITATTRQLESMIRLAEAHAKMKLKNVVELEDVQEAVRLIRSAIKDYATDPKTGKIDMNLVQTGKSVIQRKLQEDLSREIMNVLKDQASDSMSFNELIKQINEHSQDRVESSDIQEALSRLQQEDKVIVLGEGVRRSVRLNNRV

[1] = target: Origin Recognition Complex (ORC) (S. cerevisiae, UniProt P54784;P32833;P54790;P54791;P50874;P38826)
MCM2-7 = MCM2-7 (S. cerevisiae, UniProt P29469;P24279;P30665;P29496;P53091;P38132)
Sequence of MCM2-7 (P24279 whole entry, chain 2 of 4): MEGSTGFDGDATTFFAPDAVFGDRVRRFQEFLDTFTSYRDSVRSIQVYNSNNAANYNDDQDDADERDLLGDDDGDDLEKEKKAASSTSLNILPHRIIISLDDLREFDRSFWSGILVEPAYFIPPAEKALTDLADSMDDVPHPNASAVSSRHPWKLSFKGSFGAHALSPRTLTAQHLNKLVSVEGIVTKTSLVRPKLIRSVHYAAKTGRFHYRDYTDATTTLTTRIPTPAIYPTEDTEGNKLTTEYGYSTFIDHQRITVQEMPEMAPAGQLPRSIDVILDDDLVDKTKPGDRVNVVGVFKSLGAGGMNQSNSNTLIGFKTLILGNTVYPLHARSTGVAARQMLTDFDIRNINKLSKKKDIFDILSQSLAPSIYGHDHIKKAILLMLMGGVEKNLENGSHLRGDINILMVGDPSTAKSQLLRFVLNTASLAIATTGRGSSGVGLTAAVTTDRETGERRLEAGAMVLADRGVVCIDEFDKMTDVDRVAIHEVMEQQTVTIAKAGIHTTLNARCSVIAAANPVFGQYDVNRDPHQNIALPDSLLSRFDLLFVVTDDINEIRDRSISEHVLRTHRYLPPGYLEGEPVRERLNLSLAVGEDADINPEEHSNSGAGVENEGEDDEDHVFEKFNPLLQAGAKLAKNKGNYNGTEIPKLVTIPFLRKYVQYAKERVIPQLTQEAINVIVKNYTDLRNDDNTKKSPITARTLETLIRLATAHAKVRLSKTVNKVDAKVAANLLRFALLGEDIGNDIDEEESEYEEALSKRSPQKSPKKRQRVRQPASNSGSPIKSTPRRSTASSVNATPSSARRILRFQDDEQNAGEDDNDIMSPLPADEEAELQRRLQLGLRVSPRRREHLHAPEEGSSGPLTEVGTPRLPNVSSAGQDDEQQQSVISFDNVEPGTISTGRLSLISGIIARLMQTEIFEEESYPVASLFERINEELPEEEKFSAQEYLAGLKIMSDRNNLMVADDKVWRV
Sequence of MCM2-7 (P29496 whole entry, chain 4 of 4): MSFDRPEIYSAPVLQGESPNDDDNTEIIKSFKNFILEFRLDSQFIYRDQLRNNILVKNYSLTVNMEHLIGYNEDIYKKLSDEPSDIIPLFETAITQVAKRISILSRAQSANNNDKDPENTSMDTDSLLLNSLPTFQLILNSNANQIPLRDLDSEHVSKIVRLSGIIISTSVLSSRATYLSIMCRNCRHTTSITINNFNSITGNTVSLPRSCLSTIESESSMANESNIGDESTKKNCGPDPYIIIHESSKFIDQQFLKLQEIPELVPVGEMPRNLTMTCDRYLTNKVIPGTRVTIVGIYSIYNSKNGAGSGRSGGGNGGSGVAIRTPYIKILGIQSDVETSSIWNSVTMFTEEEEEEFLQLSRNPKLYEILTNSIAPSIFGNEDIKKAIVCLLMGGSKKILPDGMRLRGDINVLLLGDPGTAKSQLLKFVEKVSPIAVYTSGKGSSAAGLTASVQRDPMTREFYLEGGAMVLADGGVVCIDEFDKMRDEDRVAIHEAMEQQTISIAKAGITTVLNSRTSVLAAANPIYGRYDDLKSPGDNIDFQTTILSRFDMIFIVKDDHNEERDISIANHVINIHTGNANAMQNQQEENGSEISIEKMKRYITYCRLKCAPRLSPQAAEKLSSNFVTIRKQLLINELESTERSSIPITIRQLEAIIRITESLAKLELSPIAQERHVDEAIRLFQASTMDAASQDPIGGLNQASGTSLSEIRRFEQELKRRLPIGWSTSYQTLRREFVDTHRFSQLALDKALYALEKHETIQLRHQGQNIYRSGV
Sequence of MCM2-7 (P53091 whole entry, chain 5 of 4): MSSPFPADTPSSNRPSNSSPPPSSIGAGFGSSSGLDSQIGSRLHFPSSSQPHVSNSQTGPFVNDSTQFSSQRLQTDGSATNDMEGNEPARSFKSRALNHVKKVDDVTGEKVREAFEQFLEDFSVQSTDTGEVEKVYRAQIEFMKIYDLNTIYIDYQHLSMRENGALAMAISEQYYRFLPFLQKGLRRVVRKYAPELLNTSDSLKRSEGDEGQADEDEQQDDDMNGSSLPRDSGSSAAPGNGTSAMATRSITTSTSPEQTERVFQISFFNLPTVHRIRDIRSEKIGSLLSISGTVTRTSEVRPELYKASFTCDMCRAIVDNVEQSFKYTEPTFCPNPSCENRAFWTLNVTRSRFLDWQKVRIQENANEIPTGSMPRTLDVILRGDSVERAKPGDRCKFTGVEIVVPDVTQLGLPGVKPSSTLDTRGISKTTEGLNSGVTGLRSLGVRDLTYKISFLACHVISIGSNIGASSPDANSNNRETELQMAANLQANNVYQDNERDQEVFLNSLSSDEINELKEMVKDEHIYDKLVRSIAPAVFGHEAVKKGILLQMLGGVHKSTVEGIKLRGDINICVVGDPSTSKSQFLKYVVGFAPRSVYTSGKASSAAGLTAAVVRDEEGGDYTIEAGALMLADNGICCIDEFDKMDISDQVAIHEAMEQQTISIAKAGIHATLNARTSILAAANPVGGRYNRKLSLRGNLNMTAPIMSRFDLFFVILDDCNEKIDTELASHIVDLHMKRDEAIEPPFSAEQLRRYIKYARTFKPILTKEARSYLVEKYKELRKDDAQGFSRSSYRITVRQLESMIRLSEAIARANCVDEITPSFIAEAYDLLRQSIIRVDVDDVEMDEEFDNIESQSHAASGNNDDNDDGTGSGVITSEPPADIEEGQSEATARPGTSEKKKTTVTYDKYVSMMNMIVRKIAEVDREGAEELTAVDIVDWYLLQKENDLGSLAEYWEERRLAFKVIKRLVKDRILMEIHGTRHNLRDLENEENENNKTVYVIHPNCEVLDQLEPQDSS
Sequence of MCM2-7 (P38132 whole entry, chain 6 of 4): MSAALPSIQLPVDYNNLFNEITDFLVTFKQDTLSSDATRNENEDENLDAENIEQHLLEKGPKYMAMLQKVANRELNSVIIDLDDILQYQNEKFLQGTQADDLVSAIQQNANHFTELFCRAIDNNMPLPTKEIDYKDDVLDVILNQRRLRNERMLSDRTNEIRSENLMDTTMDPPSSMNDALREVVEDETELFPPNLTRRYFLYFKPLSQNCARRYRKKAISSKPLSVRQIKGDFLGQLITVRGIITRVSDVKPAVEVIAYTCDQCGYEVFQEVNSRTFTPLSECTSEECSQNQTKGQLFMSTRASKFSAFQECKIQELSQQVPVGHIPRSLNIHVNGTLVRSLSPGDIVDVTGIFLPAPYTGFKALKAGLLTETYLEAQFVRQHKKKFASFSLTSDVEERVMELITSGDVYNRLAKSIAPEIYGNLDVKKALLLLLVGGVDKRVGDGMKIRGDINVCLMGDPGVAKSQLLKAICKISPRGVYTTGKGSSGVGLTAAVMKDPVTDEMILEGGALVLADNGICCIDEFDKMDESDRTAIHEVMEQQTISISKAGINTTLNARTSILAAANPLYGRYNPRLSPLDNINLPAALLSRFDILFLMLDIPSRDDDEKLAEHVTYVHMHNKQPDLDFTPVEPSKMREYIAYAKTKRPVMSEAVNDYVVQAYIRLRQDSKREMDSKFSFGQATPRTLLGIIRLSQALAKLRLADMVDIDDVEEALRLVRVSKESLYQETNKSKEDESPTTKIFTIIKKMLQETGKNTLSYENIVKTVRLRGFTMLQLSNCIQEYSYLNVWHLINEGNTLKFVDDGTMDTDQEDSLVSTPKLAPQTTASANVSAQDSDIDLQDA

MCM2-7-ΔC3 = MCM2-7-ΔC3 (S. cerevisiae, UniProt P29469;P24279;P30665;P29496;P53091;P38132)
Sequence of MCM2-7-ΔC3 (P24279 1-739, stated change not applied, chain 2 of 4): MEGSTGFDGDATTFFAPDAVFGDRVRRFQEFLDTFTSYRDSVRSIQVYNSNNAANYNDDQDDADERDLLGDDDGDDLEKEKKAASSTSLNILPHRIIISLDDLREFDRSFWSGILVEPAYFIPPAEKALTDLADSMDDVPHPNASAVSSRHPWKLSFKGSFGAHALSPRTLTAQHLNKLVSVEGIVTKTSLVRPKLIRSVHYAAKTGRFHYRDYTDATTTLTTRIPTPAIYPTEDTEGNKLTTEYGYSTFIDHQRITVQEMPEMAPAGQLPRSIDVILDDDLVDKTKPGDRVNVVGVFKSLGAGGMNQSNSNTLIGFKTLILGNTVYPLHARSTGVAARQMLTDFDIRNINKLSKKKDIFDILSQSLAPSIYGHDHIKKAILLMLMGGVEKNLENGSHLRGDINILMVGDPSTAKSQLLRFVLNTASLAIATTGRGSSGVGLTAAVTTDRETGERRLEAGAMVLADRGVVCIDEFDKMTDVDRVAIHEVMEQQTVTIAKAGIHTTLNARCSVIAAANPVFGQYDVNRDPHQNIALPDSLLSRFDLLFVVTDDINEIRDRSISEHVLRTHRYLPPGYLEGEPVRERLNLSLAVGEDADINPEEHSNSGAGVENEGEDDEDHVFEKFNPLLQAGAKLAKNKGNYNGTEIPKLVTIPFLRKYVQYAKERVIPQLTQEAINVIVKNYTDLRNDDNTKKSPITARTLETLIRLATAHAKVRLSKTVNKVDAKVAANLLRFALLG
Sequence of MCM2-7-ΔC3 (P29496 whole entry, stated change not applied, chain 4 of 4): as the sequence (P29496 whole entry, chain 4 of 4) above
Sequence of MCM2-7-ΔC3 (P53091 whole entry, stated change not applied, chain 5 of 4): as the sequence (P53091 whole entry, chain 5 of 4) above
Sequence of MCM2-7-ΔC3 (P38132 whole entry, stated change not applied, chain 6 of 4): as the sequence (P38132 whole entry, chain 6 of 4) above

Sequence of Mcm3 (P24279 whole entry): as the sequence (P24279 whole entry, chain 2 of 4) above

B1: Mcm2 (natural protein)
chain: MSDNRRRRREEDDSDSENELPPSSPQQHFRGGMNPVSSPIGSPDMINPEGDDNEVDDVPDIDEVEEQMNEVDLMDDNMYEDYAADHNRDRYDPDQVDDREQQELSLSERRRIDAQLNERDRLLRNVAYIDDEDEEQEGAAQLDEMGLPVQRRRRRRQYEDLENSDDDLLSDMDIDPLREELTLESLSNVKANSYSEWITQPNVSRTIARELKSFLLEYTDETGRSVYGARIRTLGEMNSESLEVNYRHLAESKAILALFLAKCPEEMLKIFDLVAMEATELHYPDYARIHSEIHVRISDFPTIYSLRELRESNLSSLVRVTGVVTRRTGVFPQLKYVKFNCLKCGSILGPFFQDSNEEIRISFCTNCKSKGPFRVNGEKTVYRNYQRVTLQEAPGTVPPGRLPRHREVILLADLVDVSKPGEEVEVTGIYKNNYDGNLNAKNGFPVFATIIEANSIKRREGNTANEGEEGLDVFSWTEEEEREFRKISRDRGIIDKIISSMAPSIYGHRDIKTAVACSLFGGVPKNVNGKHSIRGDINVLLLGDPGTAKSQILKYVEKTAHRAVFATGQGASAVGLTASVRKDPITKEWTLEGGALVLADKGVCLIDEFDKMNDQDRTSIHEAMEQQSISISKAGIVTTLQARCSIIAAANPNGGRYNSTLPLAQNVSLTEPILSRFDILCVVRDLVDEEADERLATFVVDSHVRSHPENDEDREGEELKNNGESAIEQGEDEINEQLNARQRRLQRQRKKEEEISPIPQELLMKYIHYARTKIYPKLHQMDMDKVSRVYADLRRESISTGSFPITVRHLESILRIAESFAKMRLSEFVSSYDLDRAIKVVVDSFVDAQKVSVRRQLRRSFAIYTLGH
**Q.** Does B1 bind (Mcm3)?
**A.** binds

**Q.** Does B1 bind (Mcm4)?
**A.** binds

**Q.** Does B1 bind [1]?
**A.** binds

B2: MBP-Cdc6 (natural protein)
chain: MSAIPITPTKRIRRNLFDDAPATPPRPLKRKKLQFTDVTPESSPEKLQFGSQSIFLRTKALLQKSSELVNLNSSDGALPARTAEYEQVMNFLAKAISEHRSDSLYITGPPGTGKTAQLDMIIRQKFQSLPLSLSTPRSKDVLRHTNPNLQNLSWFELPDGRLESVAVTSINCISLGEPSSIFQKIFDSFQDLNGPTLQIKNMQHLQKFLEPYHKKTTFVVVLDEMDRLLHANTSETQSVRTILELFLLAKLPTVSFVLIGMANSLDMKDRFLSRLNLDRGLLPQTIVFQPYTAEQMYEIVIQKMSSLPTIIFQPMAIKFAAKKCAGNTGDLRKLFDVLRGSIEIYELEKRFLLSPTRGSLNSAQVPLTPTTSPVKKSYPEPQGKIGLNYIAKVFSKFVNNNSTRTRIAKLNIQQKLILCTIIQSLKLNSDATIDESFDHYIKAITKTDTLAPLQRNEFLEICTILETCGLVSIKKTKCKGKTKRFVDKIDVDLDMREFYDEMTKISILKPFLH
**Q.** Does B2 bind (MCM2-7)?
**A.** binds

**Q.** Does B2 bind (MCM2-7-ΔC3)?
**A.** binds
